Among the data in the supplement of paper PMC10567573 are protein stability index values, retold here.

Sequences and labels used below:
B1: ZNF649 (parent)
chain: DECEKAYFYMSCLVKHKRIHSREK
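Note: lentivirally expressed fusions sorted by FACS into six bins by GFP to DsRed ratio, PSI derived from sequencing read proportions per bin multiplied by bin number.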

The variants in the series derive from B1. The series can be described thus: protein stability index of a GFP-peptide fusion (GPS, HEK-293T) (PSI 1-6); higher = more stable. The note with it: c terminus: a fixed tail appended.
With DECEKAYFYNSCLVKHKRIHSREK [M10N], the protein stability index was 4.14. As for DECEKAYFYTSCLVKHKRIHSREK [M10T], the protein stability index worked out at 3.19.

For the variant DECEKAYFYDSCLVKHKRIHSREK [M10D], the protein stability index worked out at 3.97. For DECEKAYFYKSCLVKHKRIHSREK [M10K], the protein stability index worked out at 3.74. In the case of DECEKAYFYHSCLVKHKRIHSREK [M10H], the protein stability index came to 3.47. The result for DECEKAYFYGSCLVKHKRIHSREK [M10G] reads 2.56. For the variant DECEKAYFYQSCLVKHKRIHSREK [M10Q], the protein stability index was 4.12. As to DECEKAYFYRSCLVKHKRIHSREK [M10R], the protein stability index is 3.32.

For the variant DECEKAYFYLSCLVKHKRIHSREK [M10L], the protein stability index came out at 2.19. With DECEKAYFYWSCLVKHKRIHSREK [M10W], the protein stability index worked out at 2.36. DECEKAYFYSSCLVKHKRIHSREK [M10S]: the protein stability index worked out at 3.19. On to DECEKAYFYVSCLVKHKRIHSREK [M10V], for which the protein stability index was 2.38.

As for DECEKAYFYISCLVKHKRIHSREK [M10I], the protein stability index was 1.86. In the case of DECEKAYFYASCLVKHKRIHSREK [M10A] it was 3.61; in that of DECEKAYFYFSCLVKHKRIHSREK [M10F], 2.33. Consider DECEKAYFYCSCLVKHKRIHSREK [M10C], for which the protein stability index amounted to 2.75. For DECEKAYFYYSCLVKHKRIHSREK [M10Y], the protein stability index came out at 3.11. In the case of DECEKAYFYPSCLVKHKRIHSREK [M10P] it was 3.16. For the variant DECEKAYFYESCLVKHKRIHSREK [M10E], the protein stability index is 3.92.

With DECEKAYFYMLCLVKHKRIHSREK [S11L], the protein stability index was 1.74. With DECEKAYFYMNCLVKHKRIHSREK [S11N], the protein stability index worked out at 2.97. The result for DECEKAYFYMACLVKHKRIHSREK [S11A] reads 2.07; that for DECEKAYFYMHCLVKHKRIHSREK [S11H], 2.82; that for DECEKAYFYMICLVKHKRIHSREK [S11I], 1.76.

Consider DECEKAYFYMECLVKHKRIHSREK [S11E], for which the protein stability index was determined as 2.62. The result for DECEKAYFYMGCLVKHKRIHSREK [S11G] reads 3.21; that for DECEKAYFYMKCLVKHKRIHSREK [S11K], 2; that for DECEKAYFYMMCLVKHKRIHSREK [S11M], 2.37.

As for DECEKAYFYMCCLVKHKRIHSREK [S11C], the protein stability index turned out to be 2.13. With DECEKAYFYMDCLVKHKRIHSREK [S11D], the protein stability index was 3.55. In the case of DECEKAYFYMFCLVKHKRIHSREK [S11F], the protein stability index is 1.66. The result for VECEKAYFYMSCLVKHKRIHSREK [D1V] reads 1.57; that for RECEKAYFYMSCLVKHKRIHSREK [D1R], 2.03. Take TECEKAYFYMSCLVKHKRIHSREK [D1T]: the protein stability index stood at 2.9. Take YECEKAYFYMSCLVKHKRIHSREK [D1Y]: the protein stability index is 2.17. Regarding SECEKAYFYMSCLVKHKRIHSREK [D1S], the protein stability index amounted to 2.81. WECEKAYFYMSCLVKHKRIHSREK [D1W]: the protein stability index is 2.2. DECEKSYFYMSCLVKHKRIHSREK [A6S]: the protein stability index worked out at 3.04. Regarding DECEKYYFYMSCLVKHKRIHSREK [A6Y], the protein stability index worked out at 1.76.

For the variant DECEKHYFYMSCLVKHKRIHSREK [A6H], the protein stability index came to 2.58. Consider DECEKIYFYMSCLVKHKRIHSREK [A6I], for which the protein stability index is 1.89. The result for DECEKCYFYMSCLVKHKRIHSREK [A6C] reads 2.08.

In the case of DECEKLYFYMSCLVKHKRIHSREK [A6L], the protein stability index stood at 2.08. Turning to DECEKFYFYMSCLVKHKRIHSREK [A6F], the protein stability index came to 1.64.

DECEKKYFYMSCLVKHKRIHSREK [A6K]: the protein stability index is 2.56. For DECEKTYFYMSCLVKHKRIHSREK [A6T], the protein stability index worked out at 2.55. In the case of DECEKVYFYMSCLVKHKRIHSREK [A6V] it was 1.96. With DECEKMYFYMSCLVKHKRIHSREK [A6M], the protein stability index is 1.9. As for DECEKRYFYMSCLVKHKRIHSREK [A6R], the protein stability index is 2.35. In the case of DECEKDYFYMSCLVKHKRIHSREK [A6D] it was 3.52. With DECEKPYFYMSCLVKHKRIHSREK [A6P], the protein stability index turned out to be 2.79. As for DECEKEYFYMSCLVKHKRIHSREK [A6E], the protein stability index worked out at 3.01. For the variant DECEKWYFYMSCLVKHKRIHSREK [A6W], the protein stability index was 2.03.

Regarding DECEKGYFYMSCLVKHKRIHSREK [A6G], the protein stability index amounted to 2.75. Regarding DECEKQYFYMSCLVKHKRIHSREK [A6Q], the protein stability index is 3.02.

For the variant DECEKNYFYMSCLVKHKRIHSREK [A6N], the protein stability index turned out to be 2.65. In the case of DECEKATFYMSCLVKHKRIHSREK [Y7T], the protein stability index was determined as 3.

For the variant DECEKAGFYMSCLVKHKRIHSREK [Y7G], the protein stability index came out at 3.38. Take DECEKANFYMSCLVKHKRIHSREK [Y7N]: the protein stability index worked out at 3.61. Consider DECEKADFYMSCLVKHKRIHSREK [Y7D], for which the protein stability index turned out to be 4.07.

As for DECEKAEFYMSCLVKHKRIHSREK [Y7E], the protein stability index was 3.7. As to DECEKAVFYMSCLVKHKRIHSREK [Y7V], the protein stability index was determined as 2.68.

Consider DECEKARFYMSCLVKHKRIHSREK [Y7R], for which the protein stability index was 3.55. On to DECEKAWFYMSCLVKHKRIHSREK [Y7W], for which the protein stability index turned out to be 2.25. As for DECEKAIFYMSCLVKHKRIHSREK [Y7I], the protein stability index came to 2.23.

Consider DECEKAHFYMSCLVKHKRIHSREK [Y7H], for which the protein stability index stood at 3.35. The result for DECEKAQFYMSCLVKHKRIHSREK [Y7Q] reads 3.99; that for DECEKALFYMSCLVKHKRIHSREK [Y7L], 2.26. For the variant DECEKAMFYMSCLVKHKRIHSREK [Y7M], the protein stability index is 2.19. As for DECEKASFYMSCLVKHKRIHSREK [Y7S], the protein stability index stood at 3.3. Regarding DECEKAFFYMSCLVKHKRIHSREK [Y7F], the protein stability index was found to be 2.88. As for DECEKAPFYMSCLVKHKRIHSREK [Y7P], the protein stability index was 3.54.

On to DECEKAAFYMSCLVKHKRIHSREK [Y7A], for which the protein stability index was determined as 3.53. Turning to DECEKAKFYMSCLVKHKRIHSREK [Y7K], the protein stability index was determined as 3.57.

In the case of DECEKACFYMSCLVKHKRIHSREK [Y7C], the protein stability index was 3.25. In the case of DECRKAYFYMSCLVKHKRIHSREK [E4R] it was 2.33. On to DECAKAYFYMSCLVKHKRIHSREK [E4A], for which the protein stability index worked out at 1.62. With DECQKAYFYMSCLVKHKRIHSREK [E4Q], the protein stability index was determined as 2.34. DECKKAYFYMSCLVKHKRIHSREK [E4K]: the protein stability index was 1.66.

For DECVKAYFYMSCLVKHKRIHSREK [E4V], the protein stability index turned out to be 1.79. With DECLKAYFYMSCLVKHKRIHSREK [E4L], the protein stability index turned out to be 2.18. With DECWKAYFYMSCLVKHKRIHSREK [E4W], the protein stability index was 1.99. In the case of DECSKAYFYMSCLVKHKRIHSREK [E4S], the protein stability index was found to be 2.48. In the case of DECPKAYFYMSCLVKHKRIHSREK [E4P], the protein stability index is 2.45.

Regarding DECGKAYFYMSCLVKHKRIHSREK [E4G], the protein stability index is 1.76.

As to DECYKAYFYMSCLVKHKRIHSREK [E4Y], the protein stability index is 2.01. In the case of DECTKAYFYMSCLVKHKRIHSREK [E4T] it was 2.88; in that of DECIKAYFYMSCLVKHKRIHSREK [E4I], 2.17. As to DECCKAYFYMSCLVKHKRIHSREK [E4C], the protein stability index turned out to be 2.01.

Regarding DECMKAYFYMSCLVKHKRIHSREK [E4M], the protein stability index amounted to 1.44. In the case of DECNKAYFYMSCLVKHKRIHSREK [E4N], the protein stability index came out at 2. Consider DECFKAYFYMSCLVKHKRIHSREK [E4F], for which the protein stability index turned out to be 1.92. The result for DECDKAYFYMSCLVKHKRIHSREK [E4D] reads 2.83; that for DECHKAYFYMSCLVKHKRIHSREK [E4H], 2.26.
